Assay results as given in article PMC8897509 (Nature Communications, 2022).

Experiments:
ubiquitin [1] = biological target: T1, ubiquitin (UniProt P0CG48 1-76); assay: crystal structure; UbArk2C fusion alone, 2.5 Å, PDB 7R70; crystals from 1.6 M Na3Citrate, 16 °C; two copies in the asymmetric unit; conditions: both partners purified
T1 construct: ubiquitin, the mature protein; cloned into pET-3a, expressed untagged; Some pull-downs used a Cy3-labelled variant with an added N-terminal Met-Cys; also called Ub^R; Ub^D; source: E. coli BL21 (DE3), purified (HiTrap SP HP, Superdex 75)

ubiquitin [2] = biological target: T1, ubiquitin; assay: pull-down; GST-Ark2C proteins immobilised on Glutathione Sepharose mixed with ubiquitin; PBS pH 7.4, 0.2% Tween 20, 2 mM DTT, 4 °C, 30 min; washed four times with PBS; conditions: both partners purified

| Binder | binding result (ubiquitin [1]) | binding result (ubiquitin [2]) |
| --- | --- | --- |
| Ark2C RING domain (residues 255-346), as it stands in the UbArk2C fusion (domain or fragment, human, UniProt Q6ZSG1 255-346, looked up, Ark2C (RNF165), human, RING domain, residues 255-346; Used for the pair rows of the Ark2C part of the fusion m2 (structures and cross-links); also called RNF165; source: E. coli BL21 (DE3), purified, as part of the UbArk2C fusion) GAVQNTIERFTFPHKYKKRRPQDGKGKKDEGEESDTDEKCTICLSMLEDGEDVRRLPCMHLFHQLCVDQWLAMSKKCPICRVDIETQLGADS | binds |  |
| GST-Ark2C^KK/AA (Lys271 and Lys272 to alanine) (domain or fragment, human, UniProt Q6ZSG1 255-346, looked up, Ark2C (RNF165), human, RING domain, residues 255-346; The functional row uses this molecule, although the activity assays were done with the protein after cleavage of GST; source: E. coli BL21 (DE3), immobilised on Glutathione Sepharose resin; not shown: GST, N-terminal, kept) GAVQNTIERFTFPHKYAARRPQDGKGKKDEGEESDTDEKCTICLSMLEDGEDVRRLPCMHLFHQLCVDQWLAMSKKCPICRVDIETQLGADS |  | binds |
| GST-Ark2C-ΔAcidic (Δ283-291) (domain or fragment, human, UniProt Q6ZSG1 255-346, looked up, Ark2C (RNF165), human, RING domain, residues 255-346, without most of the acidic residues of the β3-RING loop; source: E. coli BL21 (DE3), immobilised on Glutathione Sepharose resin; not shown: GST, N-terminal, kept) GAVQNTIERFTFPHKYKKRRPQDGKGKKEKCTICLSMLEDGEDVRRLPCMHLFHQLCVDQWLAMSKKCPICRVDIETQLGADS |  | binds |
